# In US20150299314A1 (TORAY INDUSTRIES, published 2015):
# Changes are numbered by the printed parent chain.
# B1: mouse monoclonal antibody #8 (antibody, V domains shown)
# VH: GGGLVKPGGSLKLSCAASGFAFSSYDMSWIRQTPEKRLEWVAYISSGAGSTYYPDTVKGRFTVSRDNAKNTLYLQMSSLKSEDTAMYYCARHFYRFDYWGQGTTVTVSS
# VL: SIVMTQTPKFLLVSAGDRITITCKASQSVSNDVAWYQQKPGQSPKLLIYYASNRYTGVPDRFTGSGYGTDFTFTISTVQAEDLAVYFCQQDDRFPLTFGAGPS
# notes: mouse hybridoma antibody; also called anti-CAPRIN-1 mouse monoclonal antibody #8; anti-CAPRIN-1 monoclonal antibody #8
# B2: human-mouse chimeric anti-CAPRIN-1 antibody #23 (antibody, human IgG1, kappa, V domains shown)
# VH: GGGLVKPGGSLKLSCAASGFTFSSYGMSWVRQTPEKRLEWVATISSGGSYTYYPDSVKGRFTISRDNAKNTLYLQMSSLRSEDTAMYYCASLASYYFDYWGQGTTLTVSS
# VL: GARCDVQMIQSPSSLSASLGDIVTMTCQASQGTSINLNWFQQKPGKAPKLLIYGASSLEDGVPSRFSGSCFGTDFTLTISSLEDEDMATYFCLQHSYLPPLTFGAGTKLELKR
# B3: human-mouse chimeric anti-CAPRIN-1 antibody #24 (antibody, human IgG1, kappa, V domains shown)
# VH: B2 VH
# VL: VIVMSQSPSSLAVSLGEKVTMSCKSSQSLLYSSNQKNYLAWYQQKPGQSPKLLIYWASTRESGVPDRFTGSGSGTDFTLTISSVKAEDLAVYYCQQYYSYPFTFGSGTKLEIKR
# B4: human-mouse chimeric anti-CAPRIN-1 antibody #29 (antibody, human IgG1, kappa)
# heavy: not shown
# light: GTCGDIVMSQSPSSLAVSAGEKVTMSCKSSQSLLNSRTRKNYLAWVQHKPGQSPRLLIYWASTRESGVPDRFTGSGSGTDFTLTISSVQAEDLAVYYCRQSYNLVTFGAGPSTVAAPSVFIFPPSDEQLKSGTASVVCLLNNFYPREAKVQWKVDNALQSGNSQESVTEQDSKDSTYSLSSTLTLSKADYEKHKVYACEVTHQGLSSPVTKSFNRGEC
# B5: human-chicken chimeric antibody #2 (antibody, human IgG1, kappa, V domains shown)
# VH: AVTLDESGGGLQTPGGGLSLVCKASGFTFSSFDMGWVRQAPGKGLEFVAQINDAGSRTWYATAVKGRATISRDNGQTTVRLQLNNLRAEDTGTYYCTRGSGYVGAGAIDAWGHGTEVIVSA
# VL: AALTQPSSVSANPGETVKITCSGGSGYYGWYQQQKSPGSAPVTVIYQNDKRPSDIPSRFSGSGSGSTNTLTITGVQAEDEAVYFCGRYDSTDSGIFGAGTTLTVLT
# B6: human-mouse chimeric anti-CAPRIN-1 antibody #28 (antibody, human IgG1, kappa, V domains shown)
# VH: GPDLVKPGASVKISCKASGYSFTAYYMHWVKQSHGKSLEWIGRVNPNNGGTTYNQKFKGKAILTVDKSSSTAYMELRSLTFEDSAVYYCARRIYYGYFDYWGQGTTVTVSS
# VL: AFFAVSLGQRATISCKASQSVDYDGDSYMNWYQQKPGQPPKLLIYVASNLESGVPARFSGSGSGTDFTLNIHPVEEEDAATYYCQQSNEDPYTFGGGTKLEIKQ
# B7: mouse monoclonal antibody #13 (antibody, V domains shown)
# VH: EVQLHQFGAELVKPGASVKISCKASGYTFTDYNMDWVKQSHGKSLEWIGDINPNYDSTSYNQKFKGKATLTVDKSSSTAYMELRSLTSEDTAVYYCARSRSYDYEGFAYWGQGTLVTVSAAKTTPPSVY
# VL: AVLRCSRGLLVIWISDIQLTQSPSSLAVTAGEKVTMSCKSSQSLLWSVNQKNYLSWYQQKQRQPPKLLIYGASIRESWVPDRFTGSGSGTDFTLTISNVHAEDLAVYYCQHNHGSFLPSRSEQVPSWRSNNR
# notes: mouse hybridoma antibody; also called anti-CAPRIN-1 mouse monoclonal antibody #13; anti-CAPRIN-1 monoclonal antibody #13
# B8: human-mouse chimeric anti-CAPRIN-1 antibody #30 (antibody)
# heavy: not shown
# light: DVQITQSPSYLAASPGETITINCRASKSISKYLAWYQEKPGKTNKLLIYSGSTLQSGIPSRFSGSGSGTDFTLTISSLEPEDFAMYYCQQHNEYPYTFGGGTKLEIKRTVAAPSVFIFPPSDEQLKSGTASVVCLLNNFYPREAKVQWKVDNALQSGNSQESVTEQDSKDSTYSLSSTLTLSKADYEKHKVYACEVTHQGLSSPVTKSFNRGEC
# B9: human-mouse chimeric anti-CAPRIN-1 antibody #31 (antibody, human IgG1, kappa)
# heavy: not shown
# light: B8 light with Y96W
# B10: human-mouse chimeric anti-CAPRIN-1 antibody #25 (antibody, human IgG1, kappa, V domains shown)
# VH: GPGLVQPSQSLSITCTVSGFSLTTYDLHWVRQSPGKGLEWLGVIWSGGSTDYNAAFISRLSISKDNSKSQVFFKMNSLQANDTAIYYCARNYGYSAWFAYWGQGTLVTVSA
# VL: DVLMTQTPLSLPVSLGDQASISCRSSQSIVHSNGNTYLEWYLQKPGQSPKLLIYKVSNRFSGVPDRFSGSGSGTDFTLKISRVEAEDLGVYYCFQGSHVPLTFGAGTKLELKR
# B11: human-mouse chimeric anti-CAPRIN-1 antibody #27 (antibody, human IgG1, kappa, V domains shown)
# VH: GGGLVQPGGSMRLSCVASGFTFSNSWFNWVRQSPEKGLEWVAEIRLTSDNYAIYYAESVKGRFTISRDDSKSSVYLQMNNLRAEDTGIYYCTRPETARATFAYWGQGTTVTVSS
# VL: B10 VL with L51V, S57F, L101R, A105G, E110N, L111Q, K112T, R113G
# B12: human-mouse chimeric anti-CAPRIN-1 antibody #34 (antibody, human IgG1, kappa, V domains shown)
# VH: GAELVRPGTSVKVSCKASVYAFTNYLIEWVKQRPGQGLEWIGVINPKSGGTKYNEKFRGKATLTADKSSSTAYMQLSSLTSGDSAVYFCAITGTDYWGQGTTLTVSS
# VL: QGTRCDIQMTQTTSSLSASLGDRVTISCSASQGINNYLNWYQQKPDGTVKLLIYYTSSLRSGVPSRFSGSGSGTDYSLTISNLEPEDVATYYCQQYSKLPRTFGGGTKLEIKR
# B13: human-mouse chimeric anti-CAPRIN-1 antibody #26 (antibody, human IgG1, kappa)
# heavy: not shown
# light: PASSSDVLMTQTPLSLPVRLGDQSSISCRSSQSIVHSNGNTYLEWYLQKPGQSPKLLIYKVSNRFSGVPDRFSGSGSGTDFTLKISRVEPEDLGVYYCFQGSHVPYTSEGDQAEIKLATVAAPSVFIFPPSDEQLKSGTASVVCLLNNFYPREAKVQWKVDNALQSGNSQESVTEQDSKDSTYSLSSTLTLSKADYEKHKVYACEVTHQGLSSPVTKSFNRGEC
# B14: mouse monoclonal antibody #12 (antibody, V domains shown)
# VH: EVQLHQFGAELVKPGASVKISCKASGYTFTDYNMDWVKQSHGKSLEWIGDINPNYDSTSYNQKFKGKATLTVDKSSSTAYMELRSLTSEDTAVYYCARSRSYDYEGFAYWGQGTLVTVSA
# VL: DIQMTQSPASLSASVGETVTITCRASGNIHNYLAWYQQKQGKSPQLLVYNAKTLADGVPSRFSGSGSGTQYSLKINSLQPEDFGSYYCQHFWSTLTFGAGTKLELKR
# notes: mouse hybridoma antibody; also called anti-CAPRIN-1 mouse monoclonal antibody #12; anti-CAPRIN-1 monoclonal antibody #12
# B15: human-mouse chimeric anti-CAPRIN-1 antibody #36 (antibody, human IgG1, kappa)
# heavy: not shown
# light: QDELSNPVTSGESVSISCRSSKSLLYKDGKTYLNWFLQRPGQSPQLLIYLMSTRASGVSDRFSGSGSGTDFTLEISRVKAEDVGVYYCQQLVEDPLTFGAGTKLELKRTVAAPSVFIFPPSDEQLKSGTASVVCLLNNFYPREAKVQWKVDNALQSGNSQESVTEQDSKDSTYSLSSTLTLSKADYEKHKVYACEVTHQGLSSPVTKSFNRGEC
# B16: mouse-chicken chimeric antibody #3 (antibody, mouse IgG1, V domains shown)
# VH: AVTLDESGGGLQTPGGALSLVCKASGFTFSGYDMLWVRQAPGKGLEWVAGIGSTGGGTDYGAAVKGRATISRDNGQSTVRLQLNNLRAEDTATYYCAKVAGGCNSGYCRDSPGSIDAWGHGTEVIVS
# VL: AVTQQPASVSANPGETVKITCSGGGSRNYYGWYQQKSPGSVPVTVIYYDDQRPSNIPSRFSGALSGSTSTLTITGVQADDEAVYFCGSADSNTYEGSFGAGTTLTVL
# notes: also called anti-CAPRIN-1 mouse-chicken chimeric antibody #3
# B17: mouse-chicken chimeric antibody #2 (antibody, mouse IgG1, V domains shown)
# VH: AVTLDESGGGLQTPGGGLSLVCKASGFTFSSFDMGWVRQAPGKGLEFVAQINDAGSRTWYATAVKGRATISRDNGQTTVRLQLNNLRAEDTGTYYCTRGSGYVGAGAIDAWGHGTEVIVS
# VL: AALTQPSSVSANPGETVKITCSGGSGYYGWYQQQKSPGSAPVTVIYQNDKRPSDIPSRFSGSGSGSTNTLTITGVQAEDEAVYFCGRYDSTDSGIFGAGTTLTVL
# notes: also called anti-CAPRIN-1 mouse-chicken chimeric antibody #2
# Biological target: T1, CAPRIN-1 protein expressed on the cell surface of human cancer cells (human, UniProt Q14444 2-709)
# T1 sequence (looked up): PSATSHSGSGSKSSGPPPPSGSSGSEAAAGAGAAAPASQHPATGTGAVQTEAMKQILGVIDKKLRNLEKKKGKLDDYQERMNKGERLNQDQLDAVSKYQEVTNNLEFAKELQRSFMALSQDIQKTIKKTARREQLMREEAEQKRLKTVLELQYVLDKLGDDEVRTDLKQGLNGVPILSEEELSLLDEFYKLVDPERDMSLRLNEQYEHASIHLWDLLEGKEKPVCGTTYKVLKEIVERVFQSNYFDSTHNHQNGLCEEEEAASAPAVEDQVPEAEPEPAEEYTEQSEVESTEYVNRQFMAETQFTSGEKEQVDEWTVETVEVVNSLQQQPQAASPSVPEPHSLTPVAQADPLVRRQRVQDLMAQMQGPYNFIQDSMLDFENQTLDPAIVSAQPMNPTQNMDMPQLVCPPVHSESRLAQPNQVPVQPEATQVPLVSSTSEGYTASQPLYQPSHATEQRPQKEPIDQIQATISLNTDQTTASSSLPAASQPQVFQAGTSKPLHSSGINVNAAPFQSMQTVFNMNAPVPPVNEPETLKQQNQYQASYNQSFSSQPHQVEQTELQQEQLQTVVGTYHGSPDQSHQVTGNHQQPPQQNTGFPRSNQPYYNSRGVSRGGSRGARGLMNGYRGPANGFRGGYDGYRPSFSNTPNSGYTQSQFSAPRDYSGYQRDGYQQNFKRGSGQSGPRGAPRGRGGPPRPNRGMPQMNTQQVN
# Test: cell-based or functional assay
Binder,"cytotoxicity (ADCC, 51Cr release) on TGBC14TKB, human NK cells [%]","ADCC activity on TGBC14TKB, method as in Example 12 [%]","ADCC activity (cytotoxicity, 51Cr release) on TGBC14TKB, antibody 5 ug/mL, human NK cells [%]"
B1,≥ 15,–,–
B2,–,≥ 20,–
B3,–,≥ 20,–
B4,–,≥ 20,–
B5,≥ 15,–,–
B6,–,≥ 20,–
B7,≥ 15,–,–
B8,–,–,≥ 20
B9,–,–,≥ 20
B10,–,≥ 20,–
B11,–,≥ 20,–
B12,–,–,≥ 20
B13,–,≥ 20,–
B14,≥ 15,–,–
B15,–,–,≥ 20

# Biological target: T1, CAPRIN-1 protein expressed on the cell …
# Test: flow cytometry, TGBC14TKB cells, culture supernatant, isotype control antibody as control
# Protocol: Subsequently, a gallbladder cell line TGBC14TKB, which was confirmed to express a CAPRIN-1 gene, was investigated for whether or not a CAPRIN-1 protein is expressed on the surfaces of these cells. 1×10⁶ cells of TGBC14TKB were centrifuged with a 1.5-mL micro centrifugation tube. To the cells was added the culture supernatant (100 μL) containing any of anti-CAPRIN-1 mouse monoclonal antibodies #1 to #22 reacting to cancer cell surface produced in Example 4 and anti-CAPRIN-1 mouse-chicken chimeric antibodies #1 to #3 produced in the above (2), followed by being left to stand on ice for 1 hour. After washing with PBS, the cells were suspended in a FITC-labeled goat anti-mouse IgG antibody (manufactured by life technologies) diluted by 500-fold with PBS containing 0.1% FBS, followed by being left to stand on ice for 1 hour. After washing with PBS, the fluorescence intensity was measured with FACS Calibur available from Becton, Dickinson and Company. Separately, as a control, the same procedure as in above was performed using an iso-type control antibody, instead of the culture supernatants containing the anti-CAPRIN-1 mouse monoclonal antibodies #1 to #22 and the mouse-chicken chimeric antibodies #1 to #3. As a result, the fluorescence intensity in the cells to which any of the monoclonal antibodies #1 to #22 and the mouse-chicken chimeric antibodies #1 to #3 was added was 20% or more higher than that in the control in every case. Specifically, in the case of using mouse-chicken chimeric antibody #1, the fluorescence intensity was enhanced by 200% or more. […] The rate of increase in the fluorescence intensity is represented by the rate of increase in the mean fluorescence intensity (MFI value) in each cell and is calculated by the following calculation formula: […]
row,Binder,rate of increase in mean fluorescence intensity over control [%]
1,B1,≥ 20
2,B16,≥ 20
3,B7,≥ 20
4,B17,≥ 20
5,B14,≥ 20
